Legend:
[1] = mouse, in vivo
Description: Blood Circulation Time, Tissue Retention Time, and Bio-distribution. CD-1 mice (25-30 g, a group of four mice were tested) were anesthetized with isoflurane. Appropriate dosages of Gd-CA1.CD2 or Gd-DTPA were i.v. injected (via tail vein). Blood (~50 μl) samples were collected via orbital sinus of the mouse at different time points. The mouse was euthanized at the final time point. Tissue samples from kidney, liver, heart, and lung, were collected. Serum samples were prepared from the collected blood. For the bio-distribution analyses, the animals were euthanized at single time point (indicated) after i.v. administration of the contrast agent (indicated). The organ/tissue samples were collected. Tissue extracts were freshly made from collected samples using commercially available tissue extracting kits (Qiagen). CA1.CD2 was detected and quantified by immunoblotting and Sandwich-ELISA using a monoclonal antibody (OX45, detecting antibody) and a home made polyclonal antibody (PabCD2, capture antibody). A series of known amounts of CA1.CD2 samples mixed with blank mouse scrum or tissue extracts were used as standard in Sandwich-ELISA. ELISA signal from HRP was monitored using a Fluorstar fluorescence microplate reader. For quantification of Gd^3+ in the serum and tissue samples one hour (or indicated times) after the contrast agent administration, animals were sacrificed and critical organs were collected, and the tissues were then digested with concentrated nitric acid at 120-130° C. with proper amount of ^157Gd spike as an internal marker. The digested solution was analyzed by ICP-MS (Element 2) using an isotope dilution method.
CD-1 mice (25-30 g) were anesthetized with isoflurane. Appropriate dosages of Gd-CA1.CD2 and its PEgylated variants (with Gd and ^153Gd) or Gd-DTPA were i.v. injected (via tail vein). Blood (~50 μl) samples were collected via orbital sinus of the mouse at different time points. The mouse was euthanized at the final time point. Tissue samples from kidney, liver, heart, and lung were collected. Serum samples were prepared from the collected blood. For the bio-distribution analyses, the animals were euthanized at single time point (indicated) after i.v. administration of the contrast agent (indicated). The organ/tissue samples were collected. Tissue extracts were freshly made from collected samples using commercially available tissue extracting kits (Qiagen). CA1.CD2 and its variants were detected and quantified by immunoblotting and Sandwich-ELISA using a monoclonal antibody (OX45, detecting antibody) and a home made polyclonal antibody (PabCD2, capture antibody). A series of known amounts of CA1.CD2 samples mixed with blank mouse serum or tissue extracts were used as standard in Sandwich-ELISA. ELISA signal from HRP was monitored using a Fluorstar fluorescence microplate reader. For quantification of Gd^3+ in the serum and tissue samples one hour (or indicated times) after the contrast agent administration, animals were sacrificed and critical organs were collected, and the tissues were then digested with concentrated nitric acid at 120-130° ° C. with proper amount of ^153Gd spike as an internal marker. The digested solution was analyzed.

[2] = In vitro r1 and r2 proton relaxivity; type: physicochemical; details: 3.0 T; 50 μM designed agents, 100 μM Gd-DTPA
AU565 = assay: MR imaging of cancer cell pellets; type: cell-based
Description: (§1) To test whether our designed proteins are applicable for targeted imaging, we carried out MR imaging of cancer cells that were incubated with the designed protein contrast agents Gd-CA1-Affi using four different cancer cell lines with different expression levels of HER2. […] The MR image contrast enhancements from the contrast agent can be correlated to the HER2 levels.

SKOV3 = assay: MR imaging of cancer cell pellets; type: cell-based
Description: as §1

CD-1 mice = assay: Mouse MR imaging; type: in vivo
Description: (§2) Mouse MR Imaging. Care of experimental animals was in accordance with institutional guidelines. CD-1 mice (25-30 g, four mice were imaged) were anesthetized with an isoflurane gas mixture. The anesthetized animal was positioned and stabilized with soft-supporting material (e.g., foam) in the scanner in the coil cradle and was kept warm during the MRI scan. The mice were scanned prior to the administration of any contrast agent (pre-contrast). Approximately 50 μl of Gd-CA1.CD2 (~1.2 mM) or Gd-DTPA (~300 mM) were injected into the animal via the tail vein. MR images were collected at different times (indicated). For T1 weighted imaging at 3T, spin echo sequence with TE/TR=15 ms/500 ms was employed. Rectangular Field of View (FOV) at 100/40 mm, an acquisition matrix of 196^2 and 1.1 mm slice thickness without gap were used. Images were collected from both transverse and coronal sections. The in-plane resolution of images was less than 0.5 mm after they were reconstructed to the matrix of 196^2. For T2 weighted imaging at 9.4T, MR images were recorded using a multi-echo Carr-Purcell-Meiboom-Gill (CPMG) sequence. The data were collected and processed by Dicomworks software. The MR signal intensity in several organs was ascertained by the average intensity in ROIs or points within the organs. Signal intensity for each organ was normalized to that of the leg muscle.
as §2, with “Care” for “Mouse MR Imaging. Care”, “(e.g.” for “(e.g.,”

Molecule | time first detectable in the kidney [1] [min] | time of peak in the kidney [1] [h] | injected dose remaining in the kidney ([1]; 15 h) | time of sharp decrease in blood concentration of Gd^3+ and CA1.CD2 ([1]; iv) | contrast enhancement in T1 weighted imaging of samples [2] | MR image of AU565 cell pellets (AU565) | MR image of SKOV3 cell pellets (SKOV3) | time remaining in blood circulation [1] | time without significant decrease in CA1.CD2 levels in blood ([1]; iv) [min] | MRI contrast enhancement, T1 weighted spin echo (CD-1 mice; 3T, ~2.4 μmole Gd/kg via tail vein) | T2 contrast enhancement (CD-1 mice; 9.4T) | T1 contrast enhancement in the kidney cortex (CD-1 mice; 18 hours after administration) | duration of contrast enhancement at multiple organs (CD-1 mice; mouse, in vivo) [h]
CA1.CD2: designed Gd^3+-binding protein, domain 1 of rat CD2 with ligand residues Glu15, Glu56, Asp58, Asp62, Asp64 (protein) RDSGTVWGALGHGIELNIPNFQMTDDIDEVRWERGSTLVAEFKRKMKPFLKSGAFEIDANGDLDIKNLTRDDSGTYNVTVYSTNGTRILNKALDLRILE | 15 | 4 to 5 | less than 10% | about 50 minutes | did not lead to significant enhancement |  |  |  |  |  |  |  | 
Gd-CA1.CD2: CA1.CD2 in complex with Gd^3+ (protein) RDSGTVWGALGHGIELNIPNFQMTDDIDEVRWERGSTLVAEFKRKMKPFLKSGAFEIDANGDLDIKNLTRDDSGTYNVTVYSTNGTRILNKALDLRILE |  |  |  |  | able to introduce contrast enhancement | no significant changes in MR image | no significant changes in MR image | more than 3 hours | 45 | greatest enhancement of the MRI contrast observed in the kidney | strong T2 contrast enhancement | diminished substantially | 4 to 7

Reference: patent US12708677B2, “Contrast agents, methods for preparing contrast agents, and methods of imaging” (Georgia State University Research Foundation, Inc., priority 2008, dated 2026)
